# Laboratory results as given in the supplement of paper PMC10598134.
# ± gives the standard deviation.
# Test: collision cross section of modified peptide (TIMS, N2, iRT-aligned); higher = larger / more extended gas-phase ion
# Outline: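 Synthetic peptide pools (~100 fmol/µL in 2% acetonitrile/0.1% formic acid, iRT standard spiked 1:40) were separated on a 120-min nanoflow C18 gradient at 60 °C. They were analysed on a timsTOF Pro/HT (dda-PASEF, nitrogen, ~2.4 mbar) and identified with MaxQuant. 1/K0 was calibrated with three reference ions and aligned run-wise to the median iRT peptide deviation. Collision cross section came from the Mason-Schamp equation, averaging 1–3 technical replicates of the most abundant feature per charge state.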
# [1] = charge state: 2, modification: Malonyl
# [2] = charge state: 3, modification: Malonyl
# [3] = charge state: 2, modification: Butyryl
# [4] = charge state: 3, modification: Butyryl
# [5] = charge state: 2, modification: Propionyl
# [6] = charge state: 3, modification: Crotonyl
# [7] = charge state: 2, modification: Succinyl
# [8] = charge state: 3, modification: Succinyl
# [9] = charge state: 2, modification: Nitro (Y)
# [10] = charge state: 2, modification: Acetyl (K)
# [11] = charge state: 2, modification: Glutarylation
# [12] = charge state: 3, modification: Glutarylation
# [13] = charge state: 2, modification: Citrullination (R)
substance,measurement,setting,value
DASTLQSQKAEGTGDAK [_DASTLQSQK(Malonyl)AEGTGDAK_],collision cross section,[1],438.73 ± 1.8 Å²
same,collision cross section,[2],490.61 ± 1.6 Å²
ITESVAETAQTIKK [_ITESVAETAQTIK(Butyryl)K_],collision cross section,[3],425.5 ± 0.24 Å²
same,collision cross section,[4],518.39 ± 2.7 Å²
AGPNASIISLKSDK [_AGPNASIISLK(Propionyl)SDK_],collision cross section,[5],409.61 ± 0.38 Å²
EPFSGDHSADGFEVTSR [_EPFS(HexNAc (ST))GDHSADGFEVTSR_],collision cross section,"charge state: 3, modification: HexNAc (ST)",513.98 ± 1.8 Å²
DSSPTTNSKLSALQR [_DSSPTTNSK(Butyryl)LSALQR_],collision cross section,[3],435.34 ± 0.76 Å²
same,collision cross section,[4],499.02 ± 1.9 Å²
TQDQISNIKYHEEFEK [_TQDQISNIK(Crotonyl)YHEEFEK_],collision cross section,[6],560.13 Å²
SKHLQEQLNELK [_SK(Crotonyl)HLQEQLNELK_],collision cross section,"charge state: 2, modification: Crotonyl",421.79 ± 0.28 Å²
same,collision cross section,[6],491.86 ± 3.7 Å²
VQGGALEDSQLVAGVAFKK [_VQGGALEDSQLVAGVAFK(Dimethyl (K))K_],collision cross section,"charge state: 3, modification: Dimethyl (K)",554.94 ± 0.79 Å²
SLGEPAAGEGSAKR [_SLGEPAAGEGSAK(Butyryl)R_],collision cross section,[3],388.15 ± 2 Å²
same,collision cross section,[4],487.74 ± 4.3 Å²
SSGPGGQNVNKVNSK [_SSGPGGQNVNK(Succinyl)VNSK_],collision cross section,[7],404.66 ± 0.55 Å²
same,collision cross section,[8],443.1 ± 4 Å²
LGGDLGTYVINK [_LGGDLGTY(Nitro (Y))VINK_],collision cross section,[9],371.97 ± 0.72 Å²
SLKLNTAEDAK [_SLK(Acetyl (K))LNTAEDAK_],collision cross section,[10],373.49 ± 1.6 Å²
PGPRGQR [_P(Hydroxyproline)GPRGQR_],collision cross section,"charge state: 2, modification: Hydroxyproline",294.67 Å²
VLTANSNPSSPSAAKR [_VLTANSNPSSPSAAK(Succinyl)R_],collision cross section,[7],430.61 ± 1.1 Å²
same,collision cross section,[8],526.23 ± 1.1 Å²
ANEKTESSSAQQVAVSR [_ANEK(Gluratylation)TESSSAQQVAVSR_],collision cross section,[11],449.31 ± 1.1 Å²
same,collision cross section,[12],546.17 ± 2 Å²
DLEEAEEYK [_DLEEAEEY(Nitro (Y))K_],collision cross section,[9],368.75 ± 2.1 Å²
GFLQPPPLRQPR [_GFLQPPPLR(Citrullination (R))QPR_],collision cross section,[13],391.62 ± 0.23 Å²
same,collision cross section,"charge state: 3, modification: Citrullination (R)",460.68 Å²
RGGFAVQAK [_R(Methyl (R))GGFAVQAK_],collision cross section,"charge state: 2, modification: Methyl (R)",338.01 ± 1.4 Å²
SLGEPAAGEGSAKR [_SLGEPAAGEGSAK(Propionyl)R_],collision cross section,[5],383.35 ± 1.5 Å²
same,collision cross section,"charge state: 3, modification: Propionyl",488 ± 0.51 Å²
VGVEVPDVNIEGPEGKLK [_VGVEVPDVNIEGPEGK(Butyryl)LK_],collision cross section,[3],461.93 ± 0.5 Å²
VNIGQGSHPQKVK [_VNIGQGSHPQK(Malonyl)VK_],collision cross section,[1],424.04 ± 0.57 Å²
TVSKVDDFLANEAK [_TVSK(Malonyl)VDDFLANEAK_],collision cross section,[1],420.45 ± 0.57 Å²
FLQEFYQDDELGKK [_FLQEFYQDDELGK(Gluratylation)K_],collision cross section,[11],453.64 ± 1.5 Å²
same,collision cross section,[12],517.26 Å²
IQTKAGEATVK [_IQTK(Acetyl (K))AGEATVK_],collision cross section,[10],364.34 ± 0.62 Å²
DESFLGKLGGTLAR [_DESFLGK(Malonyl)LGGTLAR_],collision cross section,[1],413.79 ± 1.2 Å²
same,collision cross section,[2],487.95 Å²
SITHSTVGSKGEK [_SITHSTVGSK(Acetyl (K))GEK_],collision cross section,[10],391.66 ± 1.8 Å²
same,collision cross section,"charge state: 3, modification: Acetyl (K)",440.5 ± 4 Å²
RGFGFGGFAISAGK [_R(Citrullination (R))GFGFGGFAISAGK_],collision cross section,[13],391.71 ± 0.23 Å²
PSVGSQSNQAGQGKR [_PSVGSQSNQAGQGK(Formyl)R_],collision cross section,"charge state: 2, modification: Formyl",402.96 ± 2 Å²
same,collision cross section,"charge state: 3, modification: Formyl",470.1 ± 1.8 Å²
ILDLKTGTVK [_ILDLK(Acetyl (K))TGTVK_],collision cross section,[10],355.21 ± 0.89 Å²
IVSGKDYNVTANSK [_IVSGK(Succinyl)DYNVTANSK_],collision cross section,[7],411.09 ± 0.54 Å²
DYSSGFGGKYGVQADR [_DYSSGFGGK(Propionyl)YGVQADR_],collision cross section,[5],432.72 Å²
LAEEENKAK [_LAEEENK(Biotin)AK_],collision cross section,"charge state: 2, modification: Biotin",371.22 Å²
ANLEKAQAELVGTADEATR [_ANLEK(Butyryl)AQAELVGTADEATR_],collision cross section,[3],479.49 ± 1.1 Å²
same,collision cross section,[4],578.23 ± 2 Å²
GTITVSAQELKDNR [_GTITVSAQELK(Methyl (K))DNR_],collision cross section,"charge state: 2, modification: Methyl (K)",439.73 ± 1.7 Å²
same,collision cross section,"charge state: 3, modification: Methyl (K)",485.75 ± 3.3 Å²
